Consider 7 molecules from patent US20220389118A1 (Chugai, published 2022).

Assay [1] deals with T1, soluble human IL-6 receptor (human, UniProt P08887 20-357).
T1 construct: also called hsIL-6R
T1 sequence: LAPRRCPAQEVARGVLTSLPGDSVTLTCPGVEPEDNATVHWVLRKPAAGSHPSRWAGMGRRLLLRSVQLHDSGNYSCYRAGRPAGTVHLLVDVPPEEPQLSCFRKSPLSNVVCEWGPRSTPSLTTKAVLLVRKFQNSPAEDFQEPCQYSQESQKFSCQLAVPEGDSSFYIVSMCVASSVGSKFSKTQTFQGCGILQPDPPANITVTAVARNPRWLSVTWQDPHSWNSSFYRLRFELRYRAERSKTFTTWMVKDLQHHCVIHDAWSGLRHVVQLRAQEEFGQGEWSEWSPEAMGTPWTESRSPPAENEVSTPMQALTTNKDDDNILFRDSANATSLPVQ
Put plainly: SPR (Reference Example 6). As to the method:
The kinetic analysis of the antigen-antibody reactions was conducted in solutions with 2 mM and 3 μM calcium ion concentrations, set as high and low calcium ion concentration conditions, respectively. The antibody of interest was captured on Sensor chip CM4 (GE Healthcare) on which an appropriate amount of Protein A (Invitrogen) was immobilized by an amine coupling method. Two buffers [10 mM ACES, 150 mM NaCl, 0.05% (w/v) Tween 20, and 2 mM CaCl₂) (pH 7.4) or 10 mM ACES, 150 mM NaCl, 0.05% (w/v) Tween 20, and 3 μmol/L CaCl₂ (pH 7.4)] were used as running buffers. These buffers were used for diluting human IL-6 receptor. All the measurements were conducted at 37° C.
Subsequently, the sensor chip was regenerated by injecting 10 mM glycine-HCl (pH 1.5) at a flow rate 30 μL/min for 30 seconds. Dissociation constants (KD) (M) were calculated from the sensorgrams obtained in the measurement, using a steady-state affinity model. Each parameter was calculated using the Biacore T100 Evaluation Software (GE Healthcare).

Assay [2] concerns the target T2, human FcγRIa extracellular domain with C-terminal His tag (human, UniProt P12314 16-292).
T2 construct: not shown: His tag at the C terminus
The experiment in a line: SPR (Biacore), antibody captured, FcγR analyte. (In general: In SPR one partner is held on a chip, and binding of the other changes the refractive index at the surface.)

Assay [3] concerns the target T3, human FcγRIIa type H (H131) extracellular domain with C-terminal His tag (human, UniProt P12318 34-217).
T3 construct: extracellular domain; also called FcγRIIaH; not shown: His tag at the C terminus
T3 sequence (looked up): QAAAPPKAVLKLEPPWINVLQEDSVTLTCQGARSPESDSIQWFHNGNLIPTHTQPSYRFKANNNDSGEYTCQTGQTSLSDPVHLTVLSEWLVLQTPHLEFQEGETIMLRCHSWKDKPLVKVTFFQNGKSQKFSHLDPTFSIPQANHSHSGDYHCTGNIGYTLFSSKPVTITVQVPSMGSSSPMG
Put plainly: SPR (Biacore), antibody captured, FcγR analyte.

For assay [4], the target named is T4, human FcγRIIb extracellular domain with C-terminal His tag (human, UniProt P31994 43-217).
T4 construct: extracellular domain; not shown: His tag at the C terminus
T4 sequence (looked up): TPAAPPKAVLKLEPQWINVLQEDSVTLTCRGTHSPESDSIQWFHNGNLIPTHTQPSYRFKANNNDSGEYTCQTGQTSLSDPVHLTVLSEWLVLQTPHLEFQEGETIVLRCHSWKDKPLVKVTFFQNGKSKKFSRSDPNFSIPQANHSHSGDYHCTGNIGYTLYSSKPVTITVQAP
The experiment in a line: SPR (Biacore), antibody captured, FcγR analyte.

Assay [5] has as its target T5, human FcγRIIb extracellular domain (human, UniProt P31994 43-217).
T5 construct: also called FcγIIB; not shown: His tag at the C terminus
T5 sequence: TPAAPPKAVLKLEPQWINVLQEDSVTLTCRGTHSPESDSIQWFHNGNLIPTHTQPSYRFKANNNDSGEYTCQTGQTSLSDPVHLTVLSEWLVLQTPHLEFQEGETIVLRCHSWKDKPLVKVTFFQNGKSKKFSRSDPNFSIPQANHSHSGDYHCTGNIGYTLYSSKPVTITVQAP
Put plainly: fold against IL6R-B3/IL6R-L, from SPR KD values.

Assay [6] addresses T6, human FcγRIIa type R extracellular domain (human, UniProt P12318 34-217).
T6 construct: also called FcγRIIaR; FcγRIIa(R); not shown: His tag at the C terminus
T6 chain: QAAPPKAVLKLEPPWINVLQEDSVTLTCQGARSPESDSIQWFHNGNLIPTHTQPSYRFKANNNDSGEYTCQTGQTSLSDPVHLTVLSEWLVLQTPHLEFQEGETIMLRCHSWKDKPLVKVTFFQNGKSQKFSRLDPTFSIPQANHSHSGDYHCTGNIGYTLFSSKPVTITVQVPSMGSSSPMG
Put plainly: fold against IL6R-B3/IL6R-L, from SPR KD values.

The target of assay [7] is T5, human FcγRIIb extracellular domain. Put plainly: ratio of the SPR KD for FcγRIIaH to the KD for FcγRIIb (selectivity).
The target is the same in assay [8]. The experiment in a line: ratio of the SPR KD for FcγRIIaR to the KD for FcγRIIb (selectivity).
Assay [9] has the same target. The experiment in a line: SPR (Biacore), antibody captured on chip, FcγR extracellular domain as analyte, 25 C.
In assay [10] the target is T7, human FcγRIa extracellular domain (human, UniProt P12314 16-292).
T7 construct: also called CD64; not shown: His tag at the C terminus
The assay is described as above.

Assay [11] addresses T6, human FcγRIIa type R extracellular …. The description is as above.
In assay [12] the target is T8, human FcγRIIa type H extracellular domain (human, UniProt P12318 34-217).
T8 construct: also called FcγRIIaH; FcγRIIa(H); not shown: His tag at the C terminus
T8 sequence: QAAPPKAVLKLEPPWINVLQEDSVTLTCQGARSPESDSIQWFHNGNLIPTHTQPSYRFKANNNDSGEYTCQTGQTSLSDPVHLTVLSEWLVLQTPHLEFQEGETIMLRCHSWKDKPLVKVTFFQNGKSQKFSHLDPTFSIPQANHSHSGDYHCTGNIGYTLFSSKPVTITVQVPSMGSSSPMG
Described as above.

Where only a bound is given, the exact number is not on record here.

T2 sequence (P12314 16-292): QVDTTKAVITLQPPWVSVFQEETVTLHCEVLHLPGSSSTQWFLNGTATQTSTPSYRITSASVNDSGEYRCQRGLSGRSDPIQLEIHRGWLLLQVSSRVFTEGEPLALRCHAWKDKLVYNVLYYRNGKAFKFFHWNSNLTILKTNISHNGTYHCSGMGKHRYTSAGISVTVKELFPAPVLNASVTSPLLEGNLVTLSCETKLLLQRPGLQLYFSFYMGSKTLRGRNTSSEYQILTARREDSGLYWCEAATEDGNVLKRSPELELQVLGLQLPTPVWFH
T7 sequence (P12314 16-292): as above

B1: 6RL#9-IgG1 (antibody, V domains shown)
VH: QVQLVQSGAEVKKPGASVKVSCKASGYTFTSYYMHWVRQAPGQGLEWMGIINPSGGSTSYAQKFQGRVTMTRDTSTSTVYMELSSLRSEDTAVYYCARDDPGGGEYYFDYWGQGTLVTVSS
VL: QSVLTQPPSVSGAPGQRVTISCTGSRSNMGAGYDVHWYQLLPGAAPKLLISHNTHRPSGVPDRFSGSKSGASASLAITGLQAEDEADYYCQSHDSSLSAVVFGGGTKLTVLS
notes: also called antibody 6RL#9
For the molecule B1, the Ca-dependent binding ability in assay [1] was at least 100 fold.

B2: IL6R-BP447/IL6R-L (antibody, human IgG1, kappa)
heavy: QVQLQESGPGLVKPSETLSLTCAVSGHSISHDHAWSWVRQPPGEGLEWIGFISYSGITNYNPSLQGRVTISRDNSKNTLYLQMNSLRAEDTAVYYCARSLARTTAMDYWGEGTLVTVSSASTKGPSVFPLAPSSKSTSGGTAALGCLVKDYFPEPVTVSWNSGALTSGVHTFPAVLQSSGLYSLSSVVTVPSSSLGTQTYICNVNHKPSNTKVDKKVEPKSCDKTHTCPPCPAPDLLGDDSVFLFPPKPKDTLMISRTPEVTCVVVDVAEEDGEVKFNWYVDGVEVHNAKTKPREEQYNSTYRVVSVLTVLHQDWLNGKEYKCKVSNKALPRPIEKTISKAKGQPREPQVYTLPPSRDELTKNQVSLTCLVKGFYPSDIAVEWESNGQPENNYKTTPAVLDSDGSFFLYSKLTVDKSRWQQGNVFSCSVMHEALHNHYTQESLSLSP
light: not shown
notes: P396A introduced into IL6R-BP423; copies: 2 + 2
As to B2, the Kd – broadly, the constant that tells how readily two partners part at equilibrium – in assay [2] turned out to be 0.9 nM; in assay [3], 2000 nM.

B3: IL6R-BP456/IL6R-L (antibody, human IgG1, kappa)
heavy: QVQLQESGPGLVKPSETLSLTCAVSGHSISHDHAWSWVRQPPGEGLEWIGFISYSGITNYNPSLQGRVTISRDNSKNTLYLQMNSLRAEDTAVYYCARSLARTTAMDYWGEGTLVTVSSASTKGPSVFPLAPSSKSTSGGTAALGCLVKDYFPEPVTVSWNSGALTSGVHTFPAVLQSSGLYSLSSVVTVPSSSLGTQTYICNVNHKPSNTKVDKKVEPKSCDKTHTCPPCPAPDLLGDDSVFLFPPKPKDTLMISRTPEVTCVVVDVAEEDGEVKFNWYVDGVEVHNAKTKPREEQYNSTYRVVSVLTVLHQDWLNGKEYKCKVSNKALPRPIEKTISKAKGQPREPQVYTLPPSRDELTKNQVSLTCLVKGFYPSDIAVEWESNGQPENNYKTTPMVLDSDGSFFLYSKLTVDKSRWQQGNVFSCSVMHEALHNHYTQESLSLSP
light: not shown
notes: P396M introduced into IL6R-BP423; copies: 2 + 2
For the molecule B3, the Kd in [2] is 0.6 nM; in assay [3], 2000 nM.

B4: IL6R-BP464/IL6R-L (antibody, human IgG1, kappa)
heavy: QVQLQESGPGLVKPSETLSLTCAVSGHSISHDHAWSWVRQPPGEGLEWIGFISYSGITNYNPSLQGRVTISRDNSKNTLYLQMNSLRAEDTAVYYCARSLARTTAMDYWGEGTLVTVSSASTKGPSVFPLAPSSKSTSGGTAALGCLVKDYFPEPVTVSWNSGALTSGVHTFPAVLQSSGLYSLSSVVTVPSSSLGTQTYICNVNHKPSNTKVDKKVEPKSCDKTHTCPPCPAPDLLGDDSVFLFPPKPKDTLMISRTPEVTCVVVDVAEEDGEVKFNWYVDGVEVHNAKTKPREEQYNSTYRVVSVLTVLHQDWLNGKEYKCKVSNKALPRPIEKTISKAKGQPREPQVYTLPPSRDELTKNQVSLTCLVKGFYPSDIAVEWESNGQPENNYKTTPYVLDSDGSFFLYSKLTVDKSRWQQGNVFSCSVMHEALHNHYTQESLSLSP
light: not shown
notes: P396Y introduced into IL6R-BP423; copies: 2 + 2
B4: the affinity in assay [4], expressed as Kd, was 4 nM.

B5: IL6R-BP455/IL6R-L (antibody, human IgG1, kappa)
heavy: QVQLQESGPGLVKPSETLSLTCAVSGHSISHDHAWSWVRQPPGEGLEWIGFISYSGITNYNPSLQGRVTISRDNSKNTLYLQMNSLRAEDTAVYYCARSLARTTAMDYWGEGTLVTVSSASTKGPSVFPLAPSSKSTSGGTAALGCLVKDYFPEPVTVSWNSGALTSGVHTFPAVLQSSGLYSLSSVVTVPSSSLGTQTYICNVNHKPSNTKVDKKVEPKSCDKTHTCPPCPAPDLLGDDSVFLFPPKPKDTLMISRTPEVTCVVVDVAEEDGEVKFNWYVDGVEVHNAKTKPREEQYNSTYRVVSVLTVLHQDWLNGKEYKCKVSNKALPRPIEKTISKAKGQPREPQVYTLPPSRDELTKNQVSLTCLVKGFYPSDIAVEWESNGQPENNYKTTPLVLDSDGSFFLYSKLTVDKSRWQQGNVFSCSVMHEALHNHYTQESLSLSP
light: not shown
notes: P396L introduced into IL6R-BP423; copies: 2 + 2
On to B5, for which the Kd in assay [3] amounted to 1600 nM; in assay [4] it was 4 nM.

B6: IL6R-BP563/IL6R-L (antibody, human IgG1, kappa)
heavy: QVQLQESGPGLVKPSETLSLTCAVSGHSISHDHAWSWVRQPPGEGLEWIGFISYSGITNYNPSLQGRVTISRDNSKNTLYLQMNSLRAEDTAVYYCARSLARTTAMDYWGEGTLVTVSSASTKGPSVFPLAPSSKSTSGGTAALGCLVKDYFPEPVTVSWNSGALTSGVHTFPAVLQSSGLYSLSSVVTVPSSSLGTQTYICNVNHKPSNTKVDKKVEPKSCDKTHTCPPCPAPDLLGDDSVFLFPPKPKDTLMISRTPEVTCVVVDVSEEDGDVKFNWYVDGVEVHNAKTKPREEQDNSTYRVVSVLTVLHQDWLNGKEYKCKVSNKALPRPIEKTISKAKGQPREPQVYTLPPSRDELTKNQVSLTCLVKGFYPSDIAVEWESNGQPENNYKTTPPVLDSDGSFFLYSKLTVDKSRWQQGNVFSCSVMHEALHNHYTQESLSLSP
light: not shown
notes: copies: 2 + 2
Turning to B6, in assay [5], the “KD(IIb) of the parent polypeptide/KD(IIb) of the altered polypeptide” value worked out at 196. In [6], the “KD(IIaR) of the parent polypeptide/KD(IIaR) of the altered polypeptide” value is 2.4. For the same molecule, the “KD(IIaH)/KD(IIb)” value in assay [7] is 525. Besides, the “KD(IIaR)/KD(IIb)” value in [8] worked out at 29.1. The Kd in assay [9] turned out to be 16 nM; in [10] it was 12 nM; in [11], 460 nM; in assay [12] it was 8300 nM.

B7: FH4-IgG1 (antibody, V domains shown)
VH: QVQLVQSGAEVKKPGSSVKVSCKASGGTFSSYAISWVRQAPGQGLEWMGGIIPIFGTANYAQKFQGRVTITADESTSTAYMELSSLRSEDTAVYYCARERDYYDSSGYYDAFDIWGQGTMVTVSS
VL: ETTVTQSPSFLSASVGDRVTITCITTTDIDDDMNWFQQEPGKAPKLLISEGNILRPGVPSRFSSSGYGTDFTLTISKLQPEDFATYYCLQSDNLPFTFGQGTKLEIKR
B7 displayed a Ca-dependent binding ability in assay [1] of at least 100 fold.
